According to the supplement of paper PMC10567573:

B1: WDR88 (parent)
chain: LLTITKAHSNAISNCCFTFSGHFL
B2: ADAMTSL2 (parent)
chain: KKPPEESTCFERPCFKWYTSPWSE

Variants of: B1
Assay: protein stability index of a GFP-peptide fusion (GPS, HEK-293T) (PSI 1-6); higher = more stable
Conditions: c terminus: a fixed tail appended
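Also: lentivirally expressed fusions sorted by FACS into six bins by GFP to DsRed ratio, PSI derived from sequencing read proportions per bin multiplied by bin number.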

Protein stability index: each site, then its substitutions
G21: R 1.97, P 3, S 3.32, E 2.6, V 2.89, A 2.88, F 2.41, L 2.46, T 3.34, Q 2.92, Y 2.25, I 2.97, N 2.42, M 3.69, D 2.75, W 2.94, K 2.77, H 2.53, C 2.31
S20: W 2.06, D 1.98, C 2.69, F 2.6, Y 2.36, R 3.76, L 2.94, P 2.34, G 2.99, Q 2.88, A 1.09, T 2.67, N 2.94, M 2.56, I 2.07, K 2.04, V 2.54, E 2.51
H22: I 3.1, D 2.31, E 2.89, Q 2.78, V 2.67, P 2.51, Y 2.93, F 2.02, S 2.34, R 1.27, C 3.5, A 2.56, W 3.16, G 2.96, L 3.61, M 3.59, K 2.06, N 2.9, T 2.83
F23: W 3.34, I 2.79, N 1.99, V 1.99, H 2.91, G 2.05, K 1.94, Q 1.79, A 3.02, P 2.96, T 1.91, M 3.51, E 2.1, D 1.95, Y 2.94, S 2.72
F19: Q 1.63, V 2.15, W 2.32, I 2.85, H 3.04, E 1.77, N 2.33, S 2.56, Y 2.82, P 1.88, L 2.82, R 2.66, C 2.77, G 2.62, M 1.69, T 2.52, K 1.82, A 2.16, D 2.38
L24: P 2.46, E 1.77, A 2.74, K 2.93, I 3.37, F 3.56, Q 2.64, D 1.92, M 2.98, N 3.3, S 1.09, V 1.91, Y 3.97, R 2.28, G 2.88, C 2.68, T 2.47, W 1.58, H 2.63
T18: W 2.86, Y 2.76, S 2.58, V 3.09

Variants of: B2
Assay: as above
Conditions: c terminus: a fixed tail appended

Protein stability index of substitutions, site by site:
P4: K 2.49, W 1.75, L 2.04, Y 2.48, M 2.29, G 3.23, I 2.26, R 2.49, A 2.93, E 2.4, H 1.94, S 2.21, C 1.95, D 2.69, N 2.19, Q 2.72, V 2.77, F 1.89, T 3
E11: K 2.11, A 2.59, D 2.38, T 2.05, R 1.75, H 2.27, W 1.64, L 1.88, M 1.98, Y 2.19, P 2.46, Q 2.27, I 1.9, V 2.06, G 1.87, N 2.98, S 2.82, F 2.19, C 1.49
P3: F 2, S 2.29, W 2.6, L 2.26, E 3.04, R 2.46, H 1.84, G 2.34, M 2.29, Q 2.67, N 2.94, Y 1.88, A 2.83, K 2.18, I 1.93
